This is an account of results in paper PMC8130932 (PLoS Pathogens, 2021).

For experiment [1], the target named is T1, SARS-CoV-2 spike glycoprotein, full-length, prefusion-stabilised, on MDCK-SIAT1 cells (SARS-CoV-2, reference sequence, UniProt P0DTC2, 986KV987 to 986PP987 | 682RRAR685 to 682GSAG685).
T1 construct: also called MDCK-Spike
The experiment can be described thus: flow cytometry on cells. To be noted: one partner purified.

The target of experiment [2] is T2, SARS-CoV-2 spike glycoprotein S1+S2 extracellular domain (SARS-CoV-2, reference sequence, UniProt P0DTC2).
T2 construct: also called full-length spike glycoprotein ectodomain
The experiment in a line: ELISA.

B1: FB 1E (antibody, V domains shown)
VH: EVQLVESGAEVKKPGESLKISCQGSGYRFNSYWIAWVRQMPGKGLEWMGSIFPTDSDIRYNPSFQGQVTISADKSISIAYLQWSSLKASDTAIYYCARHWASMVRGVIRASHYYGMDVWGQGTTVTVSS
VL: QSVLTQPPSASGSPGQSVTISCSGASSDIGDYNYVSWYQQLPGKAPKLLIYEVTKRPSGVPDRFSGSKSGNTASLTVSGLQADDEADYYCSSYAFGGSDIRVFGGGTKLAVL
notes: source: HEK293T, transfected; culture supernatant or purified
Take B1: in experiment [1], the binding result is reported as “binds”. In experiment [2], the OD450 stood at 1.4 OD450.

B2: FB 9D (antibody, V domains shown)
VH: QVQLVESGAEVKKPGESLKISCQGSGYRFNSYWIAWVRQMPGKGLEWMGSIFPTDSDVRYNPSFQGQVTISADKSISFAYLQWSSLKASDTAIYYCARHWASMVRGVIRASHYYGMDVWGQGTTVTVSS
VL: QPVLTQPPSASGSPGQSVTISCSGASSDIGKYNYVSWYQQLPGKAPKLLIYEVTKRPSGVPDRFSGSKSGNTASLTVSGLQADDEADYYCSSYAFGGSDTRVFGGGTKLTVL
notes: as for B1
Consider B2, for which the binding result in experiment [1] is reported as “binds”. For the same molecule, the OD450 in experiment [2] was 1.43 OD450.

B3: FD 5E (antibody, V domains shown)
VH: EVQLVESGGVVVQPGGSLRLSCAASGFTFDDYAMHWVRQAPGKGLEWVSLISWDGGSTYYADSVKGRFTISRDNSKNSLYLQMNSLRAEDTALYYCAKDSVRFRYYYGMDVWGQGTTVTVSS
VL: EIVLTQSPATLSLSPGERATLSCRASQSVSSYLAWYQQKPGQAPRLLIYDASNRATGIPARFSGSGSGTDFTLTISSLEPEDFAVYYCQQRSNWPLTFGPGTKVDIK
notes: as for B1
Regarding B3, in experiment [1], the binding result is “binds”. For the same molecule, in experiment [2], the OD450 was found to be 0.34 OD450.

B4: FI 1C (antibody, V domains shown)
VH: EVQLVESGGGLVKPGGSLRLSCAASGFTFSDYYMSWIRQAPGKGLEWVSYISSSGSTIYYADSVKGRFTISRDNAKNSLYLQMNSLRAEDTAVYYCARRSNRFLIAFDIWGQGTMVTVSS
VL: QSALTQPASVSGSPGQTITISCTGTSSDVGGYNYVSWYQQHPGKAPKLMIYEVSNRPSGVSNRFSGSKSGNTASLTISGLQAEDEADYYCSSYTSSSTLVVFGGGTKLTVP
notes: as for B1
On to B4, for which, in experiment [1], the binding result was “binds”. Also, the OD450 in experiment [2] is 1.88 OD450.

B5: FD 7C (antibody, V domains shown)
VH: QLQLQESGPGLVKPSETLSLTCTVSGGSISSYYWSWIRQPPGKGLEWIGYIYYSGSTNYNPSLKSRVTISVDTSKNQFSLKLSSVTAADTAVYYCARDYRFGELFGRFAWFDPWGQGTLVTVSS
VL: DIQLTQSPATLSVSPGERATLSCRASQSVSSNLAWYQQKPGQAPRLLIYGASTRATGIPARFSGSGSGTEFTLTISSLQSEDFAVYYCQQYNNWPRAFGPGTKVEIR
notes: as for B1
For B5, the binding result in experiment [1] is given as “binds”. Besides, in experiment [2], the OD450 was determined as 1.9 OD450.

B6: EY 6A (antibody, V domains shown)
VH: EVQLVESGGGVVQPGRSLRLSCAASAFTFSSYDMHWVRQAPGKGLEWVAVISYDGSNKYYADSVKGRFTISRDNSKNTLYLQMNSLRAEDTAVYYCAKDGGKLWVYYFDYWGQGTLVTVSS
VL: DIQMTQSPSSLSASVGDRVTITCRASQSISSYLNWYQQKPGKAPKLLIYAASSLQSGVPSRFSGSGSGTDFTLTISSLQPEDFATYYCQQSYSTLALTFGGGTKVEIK
notes: as for B1
With B6, the binding result in experiment [1] is recorded as “binds”. In experiment [2], this molecule showed an OD450 of 1.75 OD450.

B7: FI 4A (antibody, V domains shown)
VH: EVQLVESGGGLVKPGGSLRLSCAASGFTFSRFSMNWVRQAPGKGLEWVSSISSSGSYIYFADSVKGRFTISRDNAKNSLYLQMNSLRAEDTAIYYCATYLFGDSHTYWGQGTLVTVSS
VL: QSVLTQPHSVSESPGKTVTISCTGSSGSIASNYVQWYQQRPGSAPTTVIYEDNQRPSGVPDRFSGSIDSSSNSASLTISGLKTEDEADYYCQSYDSSNLHWVFGGGTKLTVL
notes: as for B1
Consider B7, for which the binding result in experiment [1] is “binds”. In experiment [2], this molecule displayed an OD450 of 1.68 OD450.

B8: EZ 7A (antibody, V domains shown)
VH: EVQLVESGAEVKKPGESLKISCKGSGYSFTSYWIGWVRQMPGKGLEWMGIIYPGDSDTRYSPSFQGQVTISADKSISTAYLQWSSLKASDTAMYYCARGWVYRGFPYYGMDVWGQGTMVTVSS
VL: QSALTQPRSVSGSPGQSVTISCTGTSSDVGGYNYVSWYQQHPGKAPKLMIYDVSKRPSGVPDRFSGSKSGNTASLTISGLQAEDEADYYCCSYAGSYTLVFGGGTKLTVL
notes: as for B1
With B8, in experiment [1], the binding result is recorded as “binds”. This molecule registered an OD450 in experiment [2] of 1.66 OD450.

B9: FN 2C (antibody, V domains shown)
VH: EVQLLESGGGVVQPGRSLRLSCAASGFNFNNYGMHWVRQAPGKGLEWVATISYEGSKKFYVDSVKGRFTISKDNSKNTLYLQMNSLRVDDTAFYYCAKRREIFWLGEPPLSDAFDFWGQGTMVTVSS
VL: QSVLTQPPSVSGAPGQRVTISCTGSGSNIGAGYDVHWYQFLPGTAPQLLIYGNNNRPSGVPDRFSGSKSGTSASLAITGLQAEDEADYYCQSYDSSLSGSVFGGGTKLTVL
notes: as for B1
Regarding B9, in experiment [1], the binding result was “binds”. This molecule returned an OD450 in experiment [2] of 1.77 OD450.

B10: EW 9C (antibody, V domains shown)
VH: EVQLVESGGGVVQPGASLRLSCVASGFTFNNFGFHWVRQAPGKGLEWLAVISYEGSKTYYAESLKGRFTISRDTSKNTVYLQMNSLRAEDTAVYYCARATSIFWFGEGRNWFDPWGQGTMVTVSS
VL: EIVLTQSPGTVSLSAGERATLSCRASQNVGTDLAWYVQRPGQAPRLLIYDTSNKATGIPARFSGRGSGTDFTLTIDSLEPEDFAVYYCQQRSNWPLTFGGGTKVEIR
notes: as for B1
With B10, in experiment [1], the binding result is on record as “binds”. In addition, the OD450 in experiment [2] worked out at 1.22 OD450.

B11: FM 7B (antibody, V domains shown)
VH: EVQLVQSGAEVKKPGASVKVSCKASGYTFTSYAMHWVRQAPGQRLEWMGWINTGNGNTKYSQKFQGRVTITRDTSASTAYMELSSLRSEDTAVYYCARDPTYCSSTSCYPFSWFDPWGQGTLVTVSS
VL: NFMLTQPPSVSVAPGQTARITCGGNNIGSKSVHWYQQKPGQAPVLVVYDDSDRPSGIPERFSGSNSGNTATLTISRVEAGDEADYYCQVWDSTGDHSWVFGGGTKLTVL
notes: as for B1
Consider B11, for which, in experiment [1], the binding result is recorded as “binds”. The same molecule yielded an OD450 in experiment [2] of 1.8 OD450.
